The values below come from patent publication US12679878B2, “CRF2 receptor agonists and their use in therapy” (SANOFI, priority 2020, dated 2026).

In test [1] the target is T1, CRF1R receptor (anti-target) (UniProt P34998 24-415, limits assumed).
T1 sequence (looked up): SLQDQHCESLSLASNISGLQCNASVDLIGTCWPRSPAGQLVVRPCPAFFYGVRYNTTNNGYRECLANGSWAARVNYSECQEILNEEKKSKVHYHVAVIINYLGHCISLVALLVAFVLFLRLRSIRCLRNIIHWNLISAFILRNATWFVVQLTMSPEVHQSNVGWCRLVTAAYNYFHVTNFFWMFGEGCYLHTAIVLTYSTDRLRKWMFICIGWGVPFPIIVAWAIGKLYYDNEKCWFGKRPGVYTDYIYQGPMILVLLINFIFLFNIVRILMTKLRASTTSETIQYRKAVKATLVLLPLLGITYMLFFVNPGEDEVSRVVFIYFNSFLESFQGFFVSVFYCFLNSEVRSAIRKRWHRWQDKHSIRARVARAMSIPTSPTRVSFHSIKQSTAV
Briefly: cell-based or functional assay.

Test [2] deals with human corticotropin-releasing factor 2α (CRF2α receptor) (human), Q13324. Briefly: cell-based or functional assay.
human corticotropin-releasing factor 2α (CRF2α receptor) (human), Q13324, sequence (Q13324 20-411): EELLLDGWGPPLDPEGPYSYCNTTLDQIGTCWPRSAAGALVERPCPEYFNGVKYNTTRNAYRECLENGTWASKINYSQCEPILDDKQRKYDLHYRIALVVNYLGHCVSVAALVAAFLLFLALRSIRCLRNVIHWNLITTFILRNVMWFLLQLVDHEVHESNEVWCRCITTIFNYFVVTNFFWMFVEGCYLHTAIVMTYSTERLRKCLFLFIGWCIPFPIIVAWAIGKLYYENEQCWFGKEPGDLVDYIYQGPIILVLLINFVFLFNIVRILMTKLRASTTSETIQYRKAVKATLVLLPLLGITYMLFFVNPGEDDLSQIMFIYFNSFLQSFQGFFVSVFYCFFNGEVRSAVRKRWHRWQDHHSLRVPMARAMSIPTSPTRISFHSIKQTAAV

Starred links: 1 amine or outer side, 2 acyl side, 3 side chain; linkers in the order of their positions; H or OH if unused. Non-standard residues stand in square brackets, D forms with d. Groups on a side chain read outwards from the residue. No end group written: not given here. *: point of attachment. C16 diacid = O=C(O)CCCCCCCCCCCCCCC(=O)*; γGlu = O=C(O)[C@H](CCC(=O)[*:2])N[*:1]; AEEA = NCCOCCOCC(=O)O; Aib = CC(C)(N)C(=O)O

B1: peptide of SEQ ID NO: 202 (peptide)
peptide: IVLSLD[dV]PIGLK([AEEA-AEEA-γGlu-C16 diacid])QILLKQERQKK[Aib]REQAETNKQILAQV-NH2
modifications: N-terminus assumed
SMILES: CC[C@H](C)[C@H](N)C(=O)N[C@H](C(=O)N[C@@H](CC(C)C)C(=O)N[C@@H](CO)C(=O)N[C@@H](CC(C)C)C(=O)N[C@@H](CC(=O)O)C(=O)N[C@@H](C(=O)N1CCC[C@H]1C(=O)N[C@H](C(=O)NCC(=O)N[C@@H](CC(C)C)C(=O)N[C@@H](CCCCNC(=O)COCCOCCNC(=O)COCCOCCNC(=O)CC[C@H](NC(=O)CCCCCCCCCCCCCCC(=O)O)C(=O)O)C(=O)N[C@@H](CCC(N)=O)C(=O)N[C@H](C(=O)N[C@@H](CC(C)C)C(=O)N[C@@H](CC(C)C)C(=O)N[C@@H](CCCCN)C(=O)N[C@@H](CCC(N)=O)C(=O)N[C@@H](CCC(=O)O)C(=O)N[C@@H](CCCNC(=N)N)C(=O)N[C@@H](CCC(N)=O)C(=O)N[C@@H](CCCCN)C(=O)N[C@@H](CCCCN)C(=O)NC(C)(C)C(=O)N[C@@H](CCCNC(=N)N)C(=O)N[C@@H](CCC(=O)O)C(=O)N[C@@H](CCC(N)=O)C(=O)N[C@@H](C)C(=O)N[C@@H](CCC(=O)O)C(=O)N[C@H](C(=O)N[C@@H](CC(N)=O)C(=O)N[C@@H](CCCCN)C(=O)N[C@@H](CCC(N)=O)C(=O)N[C@H](C(=O)N[C@@H](CC(C)C)C(=O)N[C@@H](C)C(=O)N[C@@H](CCC(N)=O)C(=O)N[C@H](C(N)=O)C(C)C)[C@@H](C)CC)[C@@H](C)O)[C@@H](C)CC)[C@@H](C)CC)C(C)C)C(C)C
As for B1, in test [1], the “EC50 [nM] 0% HSA (cAMP, HTRF)” value was > 100 nM and the “Emax (%) (100% = Sauvagine at 100 nM)” value worked out at 5.4%. In addition, the EC50 [nM], 0% HSA (cAMP, HTRF) in test [2] came out at 0.87 nM.

B2: peptide of SEQ ID NO: 198 (peptide)
peptide: IVLSLD[dV]PIKLK([AEEA-AEEA-γGlu-C16 diacid])QILLKQERQK[Aib]QREQAEKNKQILAQV-NH2
modifications: N-terminus assumed
SMILES: CC[C@H](C)[C@H](N)C(=O)N[C@H](C(=O)N[C@@H](CC(C)C)C(=O)N[C@@H](CO)C(=O)N[C@@H](CC(C)C)C(=O)N[C@@H](CC(=O)O)C(=O)N[C@@H](C(=O)N1CCC[C@H]1C(=O)N[C@H](C(=O)N[C@@H](CCCCN)C(=O)N[C@@H](CC(C)C)C(=O)N[C@@H](CCCCNC(=O)COCCOCCNC(=O)COCCOCCNC(=O)CC[C@H](NC(=O)CCCCCCCCCCCCCCC(=O)O)C(=O)O)C(=O)N[C@@H](CCC(N)=O)C(=O)N[C@H](C(=O)N[C@@H](CC(C)C)C(=O)N[C@@H](CC(C)C)C(=O)N[C@@H](CCCCN)C(=O)N[C@@H](CCC(N)=O)C(=O)N[C@@H](CCC(=O)O)C(=O)N[C@@H](CCCNC(=N)N)C(=O)N[C@@H](CCC(N)=O)C(=O)N[C@@H](CCCCN)C(=O)NC(C)(C)C(=O)N[C@@H](CCC(N)=O)C(=O)N[C@@H](CCCNC(=N)N)C(=O)N[C@@H](CCC(=O)O)C(=O)N[C@@H](CCC(N)=O)C(=O)N[C@@H](C)C(=O)N[C@@H](CCC(=O)O)C(=O)N[C@@H](CCCCN)C(=O)N[C@@H](CC(N)=O)C(=O)N[C@@H](CCCCN)C(=O)N[C@@H](CCC(N)=O)C(=O)N[C@H](C(=O)N[C@@H](CC(C)C)C(=O)N[C@@H](C)C(=O)N[C@@H](CCC(N)=O)C(=O)N[C@H](C(N)=O)C(C)C)[C@@H](C)CC)[C@@H](C)CC)[C@@H](C)CC)C(C)C)C(C)C
As for B2, in test [1], the “EC50 [nM] 0% HSA (cAMP, HTRF)” value was > 100 nM and the “Emax (%) (100% = Sauvagine at 100 nM)” value was determined as 1.4%. Besides, in test [2], the EC50 [nM], 0% HSA (cAMP, HTRF) was found to be 0.49 nM.

B3: peptide of SEQ ID NO: 201 (peptide)
peptide: IVLSLD[dV]PIKLK([AEEA-AEEA-γGlu-γGlu-C16 diacid])QILLKQERQKK[Aib]RQKAEKNKQILAQV-NH2
modifications: N-terminus assumed
SMILES: CC[C@H](C)[C@H](N)C(=O)N[C@H](C(=O)N[C@@H](CC(C)C)C(=O)N[C@@H](CO)C(=O)N[C@@H](CC(C)C)C(=O)N[C@@H](CC(=O)O)C(=O)N[C@@H](C(=O)N1CCC[C@H]1C(=O)N[C@H](C(=O)N[C@@H](CCCCN)C(=O)N[C@@H](CC(C)C)C(=O)N[C@@H](CCCCNC(=O)COCCOCCNC(=O)COCCOCCNC(=O)CC[C@H](NC(=O)CC[C@H](NC(=O)CCCCCCCCCCCCCCC(=O)O)C(=O)O)C(=O)O)C(=O)N[C@@H](CCC(N)=O)C(=O)N[C@H](C(=O)N[C@@H](CC(C)C)C(=O)N[C@@H](CC(C)C)C(=O)N[C@@H](CCCCN)C(=O)N[C@@H](CCC(N)=O)C(=O)N[C@@H](CCC(=O)O)C(=O)N[C@@H](CCCNC(=N)N)C(=O)N[C@@H](CCC(N)=O)C(=O)N[C@@H](CCCCN)C(=O)N[C@@H](CCCCN)C(=O)NC(C)(C)C(=O)N[C@@H](CCCNC(=N)N)C(=O)N[C@@H](CCC(N)=O)C(=O)N[C@@H](CCCCN)C(=O)N[C@@H](C)C(=O)N[C@@H](CCC(=O)O)C(=O)N[C@@H](CCCCN)C(=O)N[C@@H](CC(N)=O)C(=O)N[C@@H](CCCCN)C(=O)N[C@@H](CCC(N)=O)C(=O)N[C@H](C(=O)N[C@@H](CC(C)C)C(=O)N[C@@H](C)C(=O)N[C@@H](CCC(N)=O)C(=O)N[C@H](C(N)=O)C(C)C)[C@@H](C)CC)[C@@H](C)CC)[C@@H](C)CC)C(C)C)C(C)C
On to B3, for which, in test [1], the “EC50 [nM] 0% HSA (cAMP, HTRF)” value is > 100 nM and the “Emax (%) (100% = Sauvagine at 100 nM)” value was -2.8%. For the same molecule, in test [2], the EC50 [nM], 0% HSA (cAMP, HTRF) was determined as 4.66 nM.

B4: peptide of SEQ ID NO: 200 (peptide)
peptide: IVLSLD[dV]PIKLK([AEEA-AEEA-γGlu-C16 diacid])QILLKQERQKK[Aib]RQKAEKNKQILAQV-NH2
modifications: N-terminus assumed
SMILES: CC[C@H](C)[C@H](N)C(=O)N[C@H](C(=O)N[C@@H](CC(C)C)C(=O)N[C@@H](CO)C(=O)N[C@@H](CC(C)C)C(=O)N[C@@H](CC(=O)O)C(=O)N[C@@H](C(=O)N1CCC[C@H]1C(=O)N[C@H](C(=O)N[C@@H](CCCCN)C(=O)N[C@@H](CC(C)C)C(=O)N[C@@H](CCCCNC(=O)COCCOCCNC(=O)COCCOCCNC(=O)CC[C@H](NC(=O)CCCCCCCCCCCCCCC(=O)O)C(=O)O)C(=O)N[C@@H](CCC(N)=O)C(=O)N[C@H](C(=O)N[C@@H](CC(C)C)C(=O)N[C@@H](CC(C)C)C(=O)N[C@@H](CCCCN)C(=O)N[C@@H](CCC(N)=O)C(=O)N[C@@H](CCC(=O)O)C(=O)N[C@@H](CCCNC(=N)N)C(=O)N[C@@H](CCC(N)=O)C(=O)N[C@@H](CCCCN)C(=O)N[C@@H](CCCCN)C(=O)NC(C)(C)C(=O)N[C@@H](CCCNC(=N)N)C(=O)N[C@@H](CCC(N)=O)C(=O)N[C@@H](CCCCN)C(=O)N[C@@H](C)C(=O)N[C@@H](CCC(=O)O)C(=O)N[C@@H](CCCCN)C(=O)N[C@@H](CC(N)=O)C(=O)N[C@@H](CCCCN)C(=O)N[C@@H](CCC(N)=O)C(=O)N[C@H](C(=O)N[C@@H](CC(C)C)C(=O)N[C@@H](C)C(=O)N[C@@H](CCC(N)=O)C(=O)N[C@H](C(N)=O)C(C)C)[C@@H](C)CC)[C@@H](C)CC)[C@@H](C)CC)C(C)C)C(C)C
As to B4, in test [1], the “EC50 [nM] 0% HSA (cAMP, HTRF)” value is > 100 nM and the “Emax (%) (100% = Sauvagine at 100 nM)” value was determined as 1.9%. The same molecule had an EC50 [nM], 0% HSA (cAMP, HTRF) in test [2] of 8.7 nM.

B5: peptide of SEQ ID NO: 199 (peptide)
peptide: IVLSLD[dV]PIKLK([AEEA-AEEA-γGlu-γGlu-C16 diacid])QILLKQERQK[Aib]QREQAEKNKQILAQV-NH2
modifications: N-terminus assumed
SMILES: CC[C@H](C)[C@H](N)C(=O)N[C@H](C(=O)N[C@@H](CC(C)C)C(=O)N[C@@H](CO)C(=O)N[C@@H](CC(C)C)C(=O)N[C@@H](CC(=O)O)C(=O)N[C@@H](C(=O)N1CCC[C@H]1C(=O)N[C@H](C(=O)N[C@@H](CCCCN)C(=O)N[C@@H](CC(C)C)C(=O)N[C@@H](CCCCNC(=O)COCCOCCNC(=O)COCCOCCNC(=O)CC[C@H](NC(=O)CC[C@H](NC(=O)CCCCCCCCCCCCCCC(=O)O)C(=O)O)C(=O)O)C(=O)N[C@@H](CCC(N)=O)C(=O)N[C@H](C(=O)N[C@@H](CC(C)C)C(=O)N[C@@H](CC(C)C)C(=O)N[C@@H](CCCCN)C(=O)N[C@@H](CCC(N)=O)C(=O)N[C@@H](CCC(=O)O)C(=O)N[C@@H](CCCNC(=N)N)C(=O)N[C@@H](CCC(N)=O)C(=O)N[C@@H](CCCCN)C(=O)NC(C)(C)C(=O)N[C@@H](CCC(N)=O)C(=O)N[C@@H](CCCNC(=N)N)C(=O)N[C@@H](CCC(=O)O)C(=O)N[C@@H](CCC(N)=O)C(=O)N[C@@H](C)C(=O)N[C@@H](CCC(=O)O)C(=O)N[C@@H](CCCCN)C(=O)N[C@@H](CC(N)=O)C(=O)N[C@@H](CCCCN)C(=O)N[C@@H](CCC(N)=O)C(=O)N[C@H](C(=O)N[C@@H](CC(C)C)C(=O)N[C@@H](C)C(=O)N[C@@H](CCC(N)=O)C(=O)N[C@H](C(N)=O)C(C)C)[C@@H](C)CC)[C@@H](C)CC)[C@@H](C)CC)C(C)C)C(C)C
As to B5, in test [1], the “EC50 [nM] 0% HSA (cAMP, HTRF)” value is > 100 nM and the “Emax (%) (100% = Sauvagine at 100 nM)” value was -2.9%. This molecule displayed an EC50 [nM], 0% HSA (cAMP, HTRF) in test [2] of 1.39 nM.
